Data on one molecule can be found in paper PMC2645917 (2008).

In the assay the target is F29 7-36 (Homo sapiens, UniProt P01275, Ile29 replaced by hexafluoroleucine, C-terminal amide). As to the kind of experiment: competition binding with [125I]-Ex.

B1: GLP-1 receptor (protein)
chain: RPQGATVSLWETVQKWREYRRQCQRSLTEDPPPATDLFCNRTFDEYACWPDGEPGSFVNVSCPWYLPWASSVPQGHVYRFCTAEGLWLQKDNSSLPWRDLSECEESKRGERSSPEEQLLFLYIIYTVGYALSFSALVIASAILLGFRHLHCTRNYIHLNLFASFILRALSVFIKDAALKWMYSTAAQQHQWDGLLSYQDSLSCRLVFLLMQYCVAANYYWLLVEGVYLYTLLAFSVLSEQWIFRLYVSIGWGVPLLFVVPWGIVKYLYEDEGCWTRNSNMNYWLIIRLPILFAIGVNFLIFVRVICIVVSKLKANLMCKTDIKCRLAKSTLTLIPLLGTHEVIFAFVMDEHARGTLRFIKLFTELSFTSFQGLMVAILYCFVNNEVQLEFRKSWERWRLEHLHIQRDSSMKPLKCPTSSLSSGATAGSSMYTATCQASCS
For B1, the IC50 turned out to be 0.0134 µM.
